Measured values published in PMC4795551, “Biochemistry and Crystal Structure of Ectoine Synthase: A Metal-Containing Member of the Cupin Superfamily” (PLoS ONE, 2016).

Assays:
[1] = substrate: CC(=O)NCC[C@H](N)C(=O)O; test: HPLC assay of ectoine formation, Michaelis-Menten; format: biochemical, Sphingopyxis alaskensis; settings: 20 mM Tris pH 8.5, 200 mM NaCl, 1 mM FeCl2, 15 °C, 20 min, 0-40 mM substrate
[2] = substrate: CC(=O)N[C@@H](CCN)C(=O)O; test: HPLC assay of ectoine formation, Michaelis-Menten; format: biochemical, Sphingopyxis alaskensis; settings: 20 mM Tris pH 8.5, 200 mM NaCl, 1 mM FeCl2, 15 °C, 20 min, 0-200 mM substrate
[3] = target: the molecule itself; test: SEC-MALS; HPLC-MALS; Bio SEC-5 HPLC column (300 Å), 20 mM Tris-HCl (pH 7.5), 200 mM NaCl; 100 μl of purified (Sa)EctC at 2 mg ml^-1 loaded

B1: ectoine synthase from Sphingopyxis alaskensis, (Sa)EctC-Strep-tag II protein (enzyme, UniProt Q1GNW6 1-137, looked up)
chain: MIVRNLGDIRKTDRNVRSDGWASARMLLKDDGMGFSFHVTTLFAGSELRMHYQNHLEAVLVLKGTGTIEDLATGEVHALRPGVMYALDDHDRHIVRPETDILTACVFNPPVTGREVHDESGAYPADPELAREPVAAD
notes: Ectoine synthase EctC (EC 4.2.1.108) of Sphingopyxis alaskensis, 137 amino acids; made from a codon-optimised synthetic ectC gene; printed stretches: 1-MIVRN-5 and 82-GVMYAL-87; Monomer with tag 16.3 kDa; In the crystals only Met-1 to Glu-115 (open) or Met-1 to Gly-121 (protomer A, semi-closed) are resolved; not shown: Strep-tag II, C-terminal, kept
With B1 the Km [1] was 4.9 ± 0.5 mM, the kcat [1] was 7.2 s⁻¹ and the Km [2] was 25.4 ± 2.9 mM. The kcat [2] was 0.6 s⁻¹ and the “stoichiometry N” value [3] was 2.
